Measurements from patent publication US20150344570A1 (published 2015).

B1: GpH7-A5/GpH7-B3 variant K334_01G/GpL16-k0 (antibody, human IgG1, kappa)
heavy 1: not shown
heavy 2: not shown
light: DIVMTQSPLSLPVTPGEPASISCQASESLVHSNRNTYLHWYLQKPGQSPQLLIYKVSNRFSGVPDRFSGSGSGTDFTLKISRVEAEDVGVYYCSQNTHVPPTFGQGTKVEIERTVAAPSVFIFPPSDEQLKSGTASVVCLLNNFYPREAKVQWKVDNALQSGNSQESVTEQDSKDSTYSLSSTLTLSKADYEKHKVYACEVTHQGLSSPVTKSFNRGEC
notes: also called He Ab K334_01G
B2: GpH7-A5/GpH7-B3 variant A330_04F/GpL16-k0 (antibody, human IgG1, kappa)
heavy 1: not shown
heavy 2: not shown
light: DIVMTQSPLSLPVTPGEPASISCQASESLVHSNRNTYLHWYLQKPGQSPQLLIYKVSNRFSGVPDRFSGSGSGTDFTLKISRVEAEDVGVYYCSQNTHVPPTFGQGTKVEIERTVAAPSVFIFPPSDEQLKSGTASVVCLLNNFYPREAKVQWKVDNALQSGNSQESVTEQDSKDSTYSLSSTLTLSKADYEKHKVYACEVTHQGLSSPVTKSFNRGEC
notes: also called He Ab A330_04F
B3: GpH7-A5/GpH7-B3 variant A330_08L/GpL16-k0 (antibody, human IgG1, kappa)
heavy 1: not shown
heavy 2: not shown
light: DIVMTQSPLSLPVTPGEPASISCQASESLVHSNRNTYLHWYLQKPGQSPQLLIYKVSNRFSGVPDRFSGSGSGTDFTLKISRVEAEDVGVYYCSQNTHVPPTFGQGTKVEIERTVAAPSVFIFPPSDEQLKSGTASVVCLLNNFYPREAKVQWKVDNALQSGNSQESVTEQDSKDSTYSLSSTLTLSKADYEKHKVYACEVTHQGLSSPVTKSFNRGEC
notes: also called He Ab A330_08L
B4: GpH7-A5/GpH7-B3 variant A330_20W/GpL16-k0 (antibody, human IgG1, kappa)
heavy 1: not shown
heavy 2: not shown
light: DIVMTQSPLSLPVTPGEPASISCQASESLVHSNRNTYLHWYLQKPGQSPQLLIYKVSNRFSGVPDRFSGSGSGTDFTLKISRVEAEDVGVYYCSQNTHVPPTFGQGTKVEIERTVAAPSVFIFPPSDEQLKSGTASVVCLLNNFYPREAKVQWKVDNALQSGNSQESVTEQDSKDSTYSLSSTLTLSKADYEKHKVYACEVTHQGLSSPVTKSFNRGEC
notes: also called He Ab A330_20W
B5: GpH7-A5/GpH7-B3 variant E333_16H/GpL16-k0 (antibody, human IgG1, kappa)
heavy 1: not shown
heavy 2: not shown
light: DIVMTQSPLSLPVTPGEPASISCQASESLVHSNRNTYLHWYLQKPGQSPQLLIYKVSNRFSGVPDRFSGSGSGTDFTLKISRVEAEDVGVYYCSQNTHVPPTFGQGTKVEIERTVAAPSVFIFPPSDEQLKSGTASVVCLLNNFYPREAKVQWKVDNALQSGNSQESVTEQDSKDSTYSLSSTLTLSKADYEKHKVYACEVTHQGLSSPVTKSFNRGEC
notes: also called He Ab E333_16H
B6: GpH7-A5/GpH7-B3 variant H268_09D/GpL16-k0 (antibody, human IgG1, kappa)
heavy 1: not shown
heavy 2: not shown
light: DIVMTQSPLSLPVTPGEPASISCQASESLVHSNRNTYLHWYLQKPGQSPQLLIYKVSNRFSGVPDRFSGSGSGTDFTLKISRVEAEDVGVYYCSQNTHVPPTFGQGTKVEIERTVAAPSVFIFPPSDEQLKSGTASVVCLLNNFYPREAKVQWKVDNALQSGNSQESVTEQDSKDSTYSLSSTLTLSKADYEKHKVYACEVTHQGLSSPVTKSFNRGEC
notes: also called He Ab H268_09D
B7: GpH7-A5/GpH7-B3 variant H268_10E/GpL16-k0 (antibody, human IgG1, kappa)
heavy 1: not shown
heavy 2: not shown
light: DIVMTQSPLSLPVTPGEPASISCQASESLVHSNRNTYLHWYLQKPGQSPQLLIYKVSNRFSGVPDRFSGSGSGTDFTLKISRVEAEDVGVYYCSQNTHVPPTFGQGTKVEIERTVAAPSVFIFPPSDEQLKSGTASVVCLLNNFYPREAKVQWKVDNALQSGNSQESVTEQDSKDSTYSLSSTLTLSKADYEKHKVYACEVTHQGLSSPVTKSFNRGEC
notes: also called He Ab H268_10E
B8: GpH7-A5/GpH7-B3 variant H268_13S/GpL16-k0 (antibody, human IgG1, kappa)
heavy 1: not shown
heavy 2: not shown
light: DIVMTQSPLSLPVTPGEPASISCQASESLVHSNRNTYLHWYLQKPGQSPQLLIYKVSNRFSGVPDRFSGSGSGTDFTLKISRVEAEDVGVYYCSQNTHVPPTFGQGTKVEIERTVAAPSVFIFPPSDEQLKSGTASVVCLLNNFYPREAKVQWKVDNALQSGNSQESVTEQDSKDSTYSLSSTLTLSKADYEKHKVYACEVTHQGLSSPVTKSFNRGEC
notes: also called He Ab H268_13S
B9: GpH7-A5/GpH7-B3 variant I332_01G/GpL16-k0 (antibody, human IgG1, kappa)
heavy 1: not shown
heavy 2: not shown
light: DIVMTQSPLSLPVTPGEPASISCQASESLVHSNRNTYLHWYLQKPGQSPQLLIYKVSNRFSGVPDRFSGSGSGTDFTLKISRVEAEDVGVYYCSQNTHVPPTFGQGTKVEIERTVAAPSVFIFPPSDEQLKSGTASVVCLLNNFYPREAKVQWKVDNALQSGNSQESVTEQDSKDSTYSLSSTLTLSKADYEKHKVYACEVTHQGLSSPVTKSFNRGEC
notes: also called He Ab I332_01G
B10: GpH7-A5/GpH7-B3 variant I332_02A/GpL16-k0 (antibody, human IgG1, kappa)
heavy 1: not shown
heavy 2: not shown
light: DIVMTQSPLSLPVTPGEPASISCQASESLVHSNRNTYLHWYLQKPGQSPQLLIYKVSNRFSGVPDRFSGSGSGTDFTLKISRVEAEDVGVYYCSQNTHVPPTFGQGTKVEIERTVAAPSVFIFPPSDEQLKSGTASVVCLLNNFYPREAKVQWKVDNALQSGNSQESVTEQDSKDSTYSLSSTLTLSKADYEKHKVYACEVTHQGLSSPVTKSFNRGEC
notes: also called He Ab I332_02A
B11: GpH7-A5/GpH7-B3 variant I332_09D/GpL16-k0 (antibody, human IgG1, kappa)
heavy 1: not shown
heavy 2: not shown
light: DIVMTQSPLSLPVTPGEPASISCQASESLVHSNRNTYLHWYLQKPGQSPQLLIYKVSNRFSGVPDRFSGSGSGTDFTLKISRVEAEDVGVYYCSQNTHVPPTFGQGTKVEIERTVAAPSVFIFPPSDEQLKSGTASVVCLLNNFYPREAKVQWKVDNALQSGNSQESVTEQDSKDSTYSLSSTLTLSKADYEKHKVYACEVTHQGLSSPVTKSFNRGEC
notes: also called He Ab I332_09D

molecular target: T1, FcγRIIIa extracellular domain with C-terminal His tag (human, UniProt P08637 17-208); assay: SPR Biacore, captured antibody, FcγR analyte, relative binding
T1 construct: extracellular domain; also called FcgRIIIa; 3a; not shown: His tag attached to the C terminus
Protocol: Analysis of interaction between objective antibody and the FcγR was carried out using Biacore T100 (GE Healthcare). HBS-EP+ (GE Healthcare) was used as the running buffer, and the measurement temperature was set to 25° C. Chips produced by immobilizing the antigen peptide by the amine coupling method to a Series S Sencor Chip CM5 (GE Healthcare), or alternatively, chips produced by allowing preliminarily biotinylated antigen peptides to interact with and immobilize onto a Series S Sensor Chip SA (certified) (GE Healthcare) were used. Antibodies of interest were captured onto an antigen peptide-immobilized chip, and allowed to interact to each FcγR diluted with running buffer. To regenerate and repeatedly use the chip, the antibodies captured on the chip were washed off by reacting 10 mM glycine-HCl, pH 1.5.

T1 sequence (P08637 17-208): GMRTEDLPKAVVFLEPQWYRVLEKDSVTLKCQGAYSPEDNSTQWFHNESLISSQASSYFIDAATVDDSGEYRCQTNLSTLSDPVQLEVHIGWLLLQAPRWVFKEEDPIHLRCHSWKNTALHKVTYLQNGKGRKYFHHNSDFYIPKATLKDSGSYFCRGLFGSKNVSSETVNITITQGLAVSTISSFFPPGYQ

Row | Binder | He/Con_3a
1 | B1 | 121 % of HeCon Ab GpH7-A5/GpH7-B3/GpL16-k0 (=100)
2 | B2 | 147 % of HeCon Ab GpH7-A5/GpH7-B3/GpL16-k0 (=100)
3 | B3 | 124 % of HeCon Ab GpH7-A5/GpH7-B3/GpL16-k0 (=100)
4 | B4 | 104 % of HeCon Ab GpH7-A5/GpH7-B3/GpL16-k0 (=100)
5 | B5 | 103 % of HeCon Ab GpH7-A5/GpH7-B3/GpL16-k0 (=100)
6 | B6 | 197 % of HeCon Ab GpH7-A5/GpH7-B3/GpL16-k0 (=100)
7 | B7 | 186 % of HeCon Ab GpH7-A5/GpH7-B3/GpL16-k0 (=100)
8 | B8 | 122 % of HeCon Ab GpH7-A5/GpH7-B3/GpL16-k0 (=100)
9 | B9 | 111 % of HeCon Ab GpH7-A5/GpH7-B3/GpL16-k0 (=100)
10 | B10 | 112 % of HeCon Ab GpH7-A5/GpH7-B3/GpL16-k0 (=100)
11 | B11 | 207 % of HeCon Ab GpH7-A5/GpH7-B3/GpL16-k0 (=100)
